Among the data in patent US8906844B2 (SYNTONIX PHARMACEUTICALS, dated 2014) are IC50 values, retold here.

One may read the IC50 as the point on the concentration scale where inhibition reaches its midpoint.

First the molecules themselves.
B1: Peptide No. 167 (peptide)
peptide: QRFVTGHFG[dP]LYPVNGP-NH2
modifications: N-terminus assumed
SMILES: CC(C)C[C@H](NC(=O)[C@H]1CCCN1C(=O)CNC(=O)[C@H](Cc1ccccc1)NC(=O)[C@H](Cc1c[nH]cn1)NC(=O)CNC(=O)[C@@H](NC(=O)[C@@H](NC(=O)[C@H](Cc1ccccc1)NC(=O)[C@H](CCCNC(=N)N)NC(=O)[C@@H](N)CCC(N)=O)C(C)C)[C@@H](C)O)C(=O)N[C@@H](Cc1ccc(O)cc1)C(=O)N1CCC[C@H]1C(=O)N[C@H](C(=O)N[C@@H](CC(N)=O)C(=O)NCC(=O)N1CCC[C@H]1C(N)=O)C(C)C
B2: Peptide No. 169 (peptide)
peptide: QRFVTGHFG[dP]LYPINGP-NH2
modifications: N-terminus assumed
SMILES: CC[C@H](C)[C@H](NC(=O)[C@@H]1CCCN1C(=O)[C@H](Cc1ccc(O)cc1)NC(=O)[C@H](CC(C)C)NC(=O)[C@H]1CCCN1C(=O)CNC(=O)[C@H](Cc1ccccc1)NC(=O)[C@H](Cc1c[nH]cn1)NC(=O)CNC(=O)[C@@H](NC(=O)[C@@H](NC(=O)[C@H](Cc1ccccc1)NC(=O)[C@H](CCCNC(=N)N)NC(=O)[C@@H](N)CCC(N)=O)C(C)C)[C@@H](C)O)C(=O)N[C@@H](CC(N)=O)C(=O)NCC(=O)N1CCC[C@H]1C(N)=O
B3: Peptide No. 25 (peptide)
peptide: QRFCGHF[βAla]LYPCNGP-NH2
modifications: disulfide 4-12; N-terminus assumed
SMILES: CC(C)C[C@@H]1NC(=O)CCNC(=O)[C@H](Cc2ccccc2)NC(=O)[C@H](Cc2c[nH]cn2)NC(=O)CNC(=O)[C@@H](NC(=O)[C@H](Cc2ccccc2)NC(=O)[C@H](CCCNC(=N)N)NC(=O)[C@@H](N)CCC(N)=O)CSSC[C@@H](C(=O)N[C@@H](CC(N)=O)C(=O)NCC(=O)N2CCC[C@H]2C(N)=O)NC(=O)[C@@H]2CCCN2C(=O)[C@H](Cc2ccc(O)cc2)NC1=O
notes: printed QRFCGHF-betaAla-LYPCNGP (no Thr)
B4: Peptide No. 151 (peptide)
peptide: QRF[Pen]TGHF[dF][dA]LYPCNGP-NH2
modifications: disulfide 4-14; N-terminus assumed
SMILES: CC(C)C[C@@H]1NC(=O)[C@@H](C)NC(=O)[C@@H](Cc2ccccc2)NC(=O)[C@H](Cc2ccccc2)NC(=O)[C@H](Cc2c[nH]cn2)NC(=O)CNC(=O)[C@H]([C@@H](C)O)NC(=O)[C@@H](NC(=O)[C@H](Cc2ccccc2)NC(=O)[C@H](CCCNC(=N)N)NC(=O)[C@@H](N)CCC(N)=O)C(C)(C)SSC[C@@H](C(=O)N[C@@H](CC(N)=O)C(=O)NCC(=O)N2CCC[C@H]2C(N)=O)NC(=O)[C@@H]2CCCN2C(=O)[C@H](Cc2ccc(O)cc2)NC1=O

Positions of bridges follow the written chain, without caps; N, C: chain ends. Non-standard residues stand in square brackets, D forms with d. No end group written: not given here. Pen = CC(C)(S)[C@H](N)C(=O)O; βAla = NCCC(=O)O

The target of the test is T1, soluble human FcRn (shFcRn) (human, UniProt P55899 24-297; P61769 21-119, biotinylated with Sulfo-NHS-LC-Biotin in the ELISA; amine-coupled to a CM5 chip in SPR).
T1 construct: also called biotinylated shFcRn
T1 sequence (P55899 24-297 limits assumed, chain 1 of 2): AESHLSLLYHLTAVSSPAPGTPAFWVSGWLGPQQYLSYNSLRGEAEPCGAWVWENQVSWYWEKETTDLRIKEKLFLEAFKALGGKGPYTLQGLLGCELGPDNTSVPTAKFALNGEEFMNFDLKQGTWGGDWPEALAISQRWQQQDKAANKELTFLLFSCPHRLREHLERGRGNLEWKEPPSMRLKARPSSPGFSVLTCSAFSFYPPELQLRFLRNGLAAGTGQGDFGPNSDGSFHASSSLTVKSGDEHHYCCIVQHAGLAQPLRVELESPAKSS
T1 sequence (P61769 21-119 limits assumed, chain 2 of 2): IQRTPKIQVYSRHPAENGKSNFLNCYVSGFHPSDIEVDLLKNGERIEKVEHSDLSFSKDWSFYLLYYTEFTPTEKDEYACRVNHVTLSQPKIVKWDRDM
The test is described as follows: competition ELISA vs human IgG. The protocol: The wells were coated with 100 μl/well of 1 μg/ml biotinylated-shFcRn in Buffer A. The plate was sealed and incubated at 37° C. for 2 hours. Afterwards, the plate was washed with 200 μl/well of Buffer B (Buffer B: 100 mM MES pH 6, 150 mM NaCl, 0.5% BSA IgG-free (Jackson ImmunoResearch, West Grove, Pa.), 0.05% Tween-20). […] To allow for mixing, the plate was rocked for 2 minutes, sealed and incubated at 37° C. for 2 hours. […] The plate was covered, incubated for 30 minutes at room temperature and washed 4 times with 200 μl/well of ice-cold buffer B. SureBlue TMB substrate solution (100 μl/well, KPL, Gaithersburg, Md.) was added and the plate was allowed to incubate at room temperature until color developed, which took 5 to 10 minutes. Once color developed, 100 μl/well of TMB stop solution (KPL, Gaithersburg, Md.) was added and the absorbance was measured at 450 nm.
(In an ELISA, binding on a coated surface is turned into a signal by an enzyme label.)
Regarding B1, the IC50 amounted to 93 µM.
Under QRFVTGHFGXLYPWNGP (D-Pro10; unbridged; C-terminal amide) [Peptide No. 172] stands 150 µM; under QRFVTGHFGXLYPYNGP (D-Pro10; unbridged; C-terminal amide) [Peptide No. 171], 150 µM.
For the molecule B2, the half-inhibitory concentration (IC50) was found to be 72 µM.
B3 yielded an IC50 of more than 125 µM.
Consider QRFXTGHFXGLYPCNGP (Pen4; D-Tyr9; disulfide; C-terminal amide) [Peptide No. 53], for which the IC50 was determined as 3.2 µM.
For the molecule B4, the IC50 stood at 4.3 µM.
In turn, QRFCTGHFGGLFPCNGP (disulfide; C-terminal amide) [Peptide No. 26] displayed an IC50 of more than 125 µM.
With QRXXTGHFGGLYPCNGP (D-Phe3; Pen4; disulfide; C-terminal amide) [Peptide No. 96], the IC50 was determined as 11.4 µM.
Regarding QRFXTGHFXGLYPCNGP (Pen4; D-Arg9; disulfide; C-terminal amide) [Peptide No. 49], the IC50 is 4.1 µM.
